According to publication PMC2797330:

Biological target: CD4 on uninfected CEM-4 cells (human (endogenous in CEM-T4)) (UniProt P01730)
Assay: flow cytometry on cells; uninfected CEM-4 cells incubated 2 h at 4°C with gp120MN (0.24 µg/ml), washed; bound gp120 detected with HIVIG (10 µg/ml) and anti-human secondary antibody; % of cells fluorescing

recombinant gp120MN (natural protein)
% of cells positive (gp120 bound to cells, detected with HIVIG): 96.2 % positive
